molecular target: HLA-B*44 (human); experiment: UV peptide exchange ELISA

| peptide exchange yield [%] | Binder |
| --- | --- |
| 50 to 75 | SEDDPILQI |
| 20 to 50 | TEFPIIKMY |
| > 75 | SEIGKAVGF |
| 50 to 75 | AEDQLHHSF |

molecular target: HLA-B*08 (human); experiment: UV peptide exchange ELISA

| peptide exchange yield [%] | Binder |
| --- | --- |
| > 75 | LPFPKFTV |
| 50 to 75 | VIKEKALTL |
| > 75 | EAAIRSVEL |
| > 75 | DIYQRALNL |
| > 75 | MAQFKEISL |
| > 75 | ALKLRVAVL |
| > 75 | EIRIRVVQM |
| 50 to 75 | HLLQKQTSI |
| > 75 | AIISRLVAL |
| > 75 | ELKKKEYEEL |
| > 75 | MPMQDIKM |
| 50 to 75 | VASPKHCVL |
| > 75 | MLKQKVEEL |
| > 75 | LVKVKVLL |
| > 75 | ILLPRTVSL |
| > 75 | RAQLKLVAL |
| > 75 | YMHKLLVL |
| > 75 | EAMLRNKEL |
| > 75 | LPPKKFVL |
| > 75 | ELKKLYCQI |
| 50 to 75 | FNKRKPLSL |
| 50 to 75 | DAIQRKYSC |
| > 75 | ILKVKVGL |

Source: US20220153796A1
